Two substances from PMC9543379, “Dihydroxy‐Acid Dehydratases From Pathogenic Bacteria: Emerging Drug Targets to Combat Antibiotic Resistance” (Chemistry (Weinheim an Der Bergstrasse, Germany), 2022) can be followed below.

The test system of data set [1] is T1, CC(C)(O)C(O)C(=O)O.
T1 construct: hexa-histidine tag at the N-terminal, pET-28a
The experiment in a line: Michaelis-Menten kinetics (Km), DNPH assay. It counts as biochemical, Campylobacter jejuni. The conditions noted are these: [4Fe-4S] cluster, Mg2+ active site.

In data set [2] the test system is T1, CC(C)(O)C(O)C(=O)O. The data set is described as follows: Michaelis-Menten kinetics (Km), DNPH assay. Type of data set: biochemical, Staphylococcus aureus. The settings on record: [4Fe-4S] cluster, Mg2+ active site.

“CjDHAD (dihydroxy-acid dehydratase) (Campylobacter jejuni subsp. jejuni NCTC 11168 = ATCC 700819)”: in the data set on CC(C)(O)C(O)C(=O)O [1], the Km was determined as 820 µM, the kcat is 6.5 s⁻¹ and the kcat/Km amounted to 7930 M⁻¹ s⁻¹.

For “SaDHAD (dihydroxy-acid dehydratase) (Staphylococcus aureus subsp. aureus NCTC 8325)”, in the data set with CC(C)(O)C(O)C(=O)O [2], the Km came to 1100 µM, the kcat is 2.1 s⁻¹ and the catalytic efficiency (kcat/Km) stood at 1910 M⁻¹ s⁻¹.

The term Km denotes the substrate concentration at which the rate is half of its maximum. The term kcat denotes the number of substrate molecules converted per active site and unit of time at saturation. The kcat/Km is the turnover number divided by the Michaelis constant.
